Reference: patent publication US20230140293A1

Legend:
Assay in all cases: cell-based or functional assay
[1] = target: HIV-1 Env 426c.SM (N276D), Env-pseudotyped virus produced in 293T cells (HIV-1 clade C strain 426c)
[2] = target: CH0505TF Env, Env-pseudotyped virus produced in 293T cells (HIV-1)
[3] = target: HIV-1 clade C strain 426c Env on Env-pseudotyped virus produced in 293s/GnTI-/- cells (Man5-enrichment) (HIV-1)
[4] = target: CH0505TF.gly4 Env, pseudotyped virus produced in 293S GnTI- cells (HIV-1)
[5] = target: CH0505TF.gly3.461 Env, pseudotyped virus produced in 293S GnTI- cells (HIV-1)
[6] = target: HIV-1 Env 426c, Env-pseudotyped virus produced in 293S GnTI- cells (Man5-enriched) (HIV-1 clade C strain 426c)
[7] = target: CH0505.w4.3 Env, Env-pseudotyped virus produced in 293T cells (HIV-1)
[8] = target: CH0505TF.G458Y Env, Env-pseudotyped virus produced in 293T cells (HIV-1)
[9] = target: CH0505TF.gly3.197 Env, Env-pseudotyped virus produced in 293T cells (HIV-1)
[10] = target: HIV-1 426c.DM (N460D/N463D) Env on Env-pseudotyped virus produced in 293T cells (HIV-1)
[11] = target: CH0505TF.G458Y Env, pseudotyped virus produced in 293S GnTI- cells (HIV-1)
[12] = target: HIV-1 426c.TM (N276D/N460D/N463D) Env on Env-pseudotyped virus produced in 293T cells (HIV-1)
[13] = target: CH0505TF.gly3.276 Env, Env-pseudotyped virus produced in 293T cells (HIV-1)
[14] = target: CH0505TF.gly3.276 Env, pseudotyped virus produced in 293S GnTI- cells (HIV-1)
[15] = target: HIV-1 clade C strain 426c Env on Env-pseudotyped virus produced in 293T cells (HIV-1)
[16] = target: HIV-1 Env 426c.TM4 (S278R.G471S.N460D.N463D), Env-pseudotyped virus produced in 293T cells (HIV-1 clade C strain 426c)
[17] = target: HIV-1 Env 426c.TM4 (S278R.G471S.N460D.N463D), Env-pseudotyped virus produced in 293S GnTI- cells (Man5-enriched) (HIV-1 clade C strain 426c)
[18] = target: HIV-1 Env 426c, Env-pseudotyped virus produced in 293T cells (HIV-1 clade C strain 426c)
[19] = target: HIV-1 Env 426c.TM (N276D.N460D.N463D), Env-pseudotyped virus produced in 293T cells (HIV-1 clade C strain 426c)
[20] = target: HIV-1 426c.TM (N276D/N460D/N463D) Env on Env-pseudotyped virus produced in 293s/GnTI-/- cells (Man5-enrichment) (HIV-1)
[21] = target: HIV-1 Env 426c.TM (N276D.N460D.N463D), Env-pseudotyped virus produced in 293S GnTI- cells (Man5-enriched) (HIV-1 clade C strain 426c)
[22] = target: HIV-1 Env 426c.SM (N276D), Env-pseudotyped virus produced in 293S GnTI- cells (Man5-enriched) (HIV-1 clade C strain 426c)
[23] = target: CH0505TF.gly4 Env, Env-pseudotyped virus produced in 293T cells (HIV-1)
[24] = target: HIV-1 Env 426c.DM (N460D.N463D), Env-pseudotyped virus produced in 293S GnTI- cells (Man5-enriched) (HIV-1 clade C strain 426c)
[25] = target: HIV-1 426c.SM (N276D) Env on Env-pseudotyped virus produced in 293T cells (HIV-1)
[26] = target: HIV-1 Env 426c.DM (N460D.N463D), Env-pseudotyped virus produced in 293T cells (HIV-1 clade C strain 426c)
[27] = target: HIV-1 426c.SM (N276D) Env on Env-pseudotyped virus produced in 293s/GnTI-/- cells (Man5-enrichment) (HIV-1)
[28] = target: HIV-1 426c.DM (N460D/N463D) Env on Env-pseudotyped virus produced in 293s/GnTI-/- cells (Man5-enrichment) (HIV-1)
[29] = target: CH0505TF Env, pseudotyped virus produced in 293S GnTI- cells (HIV-1)
[30] = target: CH0505TF.gly3.197 Env, pseudotyped virus produced in 293S GnTI- cells (HIV-1)
[31] = target: CH0505TF.gly3.461 Env, Env-pseudotyped virus produced in 293T cells (HIV-1)
[32] = target: HIV-1 CH0505TF.N280D Env on Env-pseudotyped virus produced in 293T cells (HIV-1)
[33] = target: HIV-1 CH0505TF (CH505 transmitted/founder) Env on Env-pseudotyped virus produced in 293T cells (HIV-1)
[34] = target: HIV-1 CH0505TF.S365P Env on Env-pseudotyped virus produced in 293T cells (HIV-1)
[35] = target: HIV-1 CH0505TF.G458Y Env on Env-pseudotyped virus produced in 293T cells (HIV-1)

## IgG1b12 (antibody)
[1]
  IC50 (µg/ml) in TZM-bl: > 25 µg/mL
[2]
  IC50 (µg/ml) in TZM-bl: 0.98 µg/mL
[3]
  ID50/IC50 in TZM-bl: > 25 µg/mL
[4]
  IC50 (µg/ml) in TZM-bl: 0.001 µg/mL
[5]
  IC50 (µg/ml) in TZM-bl: 0.02 µg/mL
[6]
  IC50 (µg/ml) in TZM-bl: > 25 µg/mL
[7]
  IC50 (µg/ml) in TZM-bl: < 0.02 µg/mL
[8]
  IC50 (µg/ml) in TZM-bl: 0.1 µg/mL
[9]
  IC50 (µg/ml) in TZM-bl: 0.68 µg/mL
[10]
  ID50/IC50 in TZM-bl: > 25 µg/mL
[11]
  IC50 (µg/ml) in TZM-bl: 0.22 µg/mL
[12]
  ID50/IC50 in TZM-bl: > 25 µg/mL
[13]
  IC50 (µg/ml) in TZM-bl: 0.007 µg/mL
[14]
  IC50 (µg/ml) in TZM-bl: 0.01 µg/mL
[15]
  ID50/IC50 in TZM-bl: > 25 µg/mL
[16]
  IC50 (µg/ml) in TZM-bl: > 25 µg/mL
[17]
  IC50 (µg/ml) in TZM-bl: > 25 µg/mL
[18]
  IC50 (µg/ml) in TZM-bl: > 25 µg/mL
[19]
  IC50 (µg/ml) in TZM-bl: > 25 µg/mL
[20]
  ID50/IC50 in TZM-bl: > 25 µg/mL
[21]
  IC50 (µg/ml) in TZM-bl: > 25 µg/mL
[22]
  IC50 (µg/ml) in TZM-bl: > 25 µg/mL
[23]
  IC50 (µg/ml) in TZM-bl: 0.004 µg/mL
[24]
  IC50 (µg/ml) in TZM-bl: > 25 µg/mL
[25]
  ID50/IC50 in TZM-bl: > 25 µg/mL
[26]
  IC50 (µg/ml) in TZM-bl: > 25 µg/mL
[27]
  ID50/IC50 in TZM-bl: > 25 µg/mL
[28]
  ID50/IC50 in TZM-bl: > 25 µg/mL
[29]
  IC50 (µg/ml) in TZM-bl: 0.61 µg/mL
[30]
  IC50 (µg/ml) in TZM-bl: 0.26 µg/mL
[31]
  IC50 (µg/ml) in TZM-bl: 0.011 µg/mL

## N6 (antibody)
[2]
  IC50 (µg/ml) in TZM-bl: 0.06 µg/mL
[4]
  IC50 (µg/ml) in TZM-bl: 0.001 µg/mL
[5]
  IC50 (µg/ml) in TZM-bl: 0.002 µg/mL
[7]
  IC50 (µg/ml) in TZM-bl: 0.01 µg/mL
[8]
  IC50 (µg/ml) in TZM-bl: 0.02 µg/mL
[9]
  IC50 (µg/ml) in TZM-bl: 0.01 µg/mL
[11]
  IC50 (µg/ml) in TZM-bl: 0.008 µg/mL
[13]
  IC50 (µg/ml) in TZM-bl: 0.003 µg/mL
[14]
  IC50 (µg/ml) in TZM-bl: 0.004 µg/mL
[23]
  IC50 (µg/ml) in TZM-bl: 0.001 µg/mL
[29]
  IC50 (µg/ml) in TZM-bl: 0.016 µg/mL
[30]
  IC50 (µg/ml) in TZM-bl: 0.003 µg/mL
[31]
  IC50 (µg/ml) in TZM-bl: 0.004 µg/mL
[32]
  IC50 (µg/ml) in TZM-bl: > 17 µg/mL
[33]
  IC50 (µg/ml) in TZM-bl: 0.06 µg/mL
[34]
  IC50 (µg/ml) in TZM-bl: 0.02 µg/mL
[35]
  IC50 (µg/ml) in TZM-bl: 0.02 µg/mL

## VRC-CH31 (antibody)
[1]
  IC50 (µg/ml) in TZM-bl: > 25 µg/mL
[2]
  IC50 (µg/ml) in TZM-bl: 0.03 µg/mL
[3]
  ID50/IC50 in TZM-bl: 0.04 µg/mL
[4]
  IC50 (µg/ml) in TZM-bl: 0.001 µg/mL
[5]
  IC50 (µg/ml) in TZM-bl: 0.007 µg/mL
[6]
  IC50 (µg/ml) in TZM-bl: 0.04 µg/mL
[7]
  IC50 (µg/ml) in TZM-bl: 0.05 µg/mL
[8]
  IC50 (µg/ml) in TZM-bl: 0.023 µg/mL
[9]
  IC50 (µg/ml) in TZM-bl: 0.01 µg/mL
[10]
  ID50/IC50 in TZM-bl: 0.73 µg/mL
[11]
  IC50 (µg/ml) in TZM-bl: 0.06 µg/mL
[12]
  ID50/IC50 in TZM-bl: > 25 µg/mL
[13]
  IC50 (µg/ml) in TZM-bl: 0.002 µg/mL
[14]
  IC50 (µg/ml) in TZM-bl: 0.001 µg/mL
[15]
  ID50/IC50 in TZM-bl: 0.62 µg/mL
[16]
  IC50 (µg/ml) in TZM-bl: 0.15 µg/mL
[17]
  IC50 (µg/ml) in TZM-bl: 0.01 µg/mL
[18]
  IC50 (µg/ml) in TZM-bl: 0.62 µg/mL
[19]
  IC50 (µg/ml) in TZM-bl: > 25 µg/mL
[20]
  ID50/IC50 in TZM-bl: 1.6 µg/mL
[21]
  IC50 (µg/ml) in TZM-bl: 1.6 µg/mL
[22]
  IC50 (µg/ml) in TZM-bl: 0.7 µg/mL
[23]
  IC50 (µg/ml) in TZM-bl: 0.002 µg/mL
[24]
  IC50 (µg/ml) in TZM-bl: 0.02 µg/mL
[25]
  ID50/IC50 in TZM-bl: > 25 µg/mL
[26]
  IC50 (µg/ml) in TZM-bl: 0.73 µg/mL
[27]
  ID50/IC50 in TZM-bl: 0.7 µg/mL
[28]
  ID50/IC50 in TZM-bl: 0.02 µg/mL
[29]
  IC50 (µg/ml) in TZM-bl: 0.04 µg/mL
[30]
  IC50 (µg/ml) in TZM-bl: 0.01 µg/mL
[31]
  IC50 (µg/ml) in TZM-bl: 0.09 µg/mL
[32]
  IC50 (µg/ml) in TZM-bl: > 25 µg/mL
[33]
  IC50 (µg/ml) in TZM-bl: 0.03 µg/mL
[34]
  IC50 (µg/ml) in TZM-bl: 1.2 µg/mL
[35]
  IC50 (µg/ml) in TZM-bl: < 0.01 µg/mL
